Experimental data reported in patent US20240360203A1.

Assays:
Assay in all cases: DELFIA on captured biotin-peptide
Design in all cases: unit not given beside the values
[1] = target: SARS-CoV-2 spike S2 peptide 1133-1147, biotinylated (SARS-CoV-2)
[2] = target: SARS-CoV-2 spike S2 peptide 1137-1151, biotinylated (SARS-CoV-2)
[3] = target: SARS-CoV-2 spike S2 peptide 1141-1155, biotinylated (SARS-CoV-2)
[4] = target: SARS-CoV-2 spike S2 peptide 1143-1162, biotinylated (SARS-CoV-2)
[5] = target: SARS-CoV-2 spike S2 peptide 1145-1159, biotinylated (SARS-CoV-2)
[6] = target: SARS-CoV-2 spike S2 peptide 1149-1163, biotinylated (SARS-CoV-2)
[7] = target: SARS-CoV-2 spike S2 peptide 1149-1167, biotinylated (SARS-CoV-2)
[8] = target: SARS-CoV-2 spike S2 peptide 1153-1167, biotinylated (SARS-CoV-2)
[9] = target: SARS-CoV-2 spike S2 peptide 1157-1171, biotinylated (SARS-CoV-2)

isotype control (palivizumab variable regions expressed as human IgG1 with LS mutation in the Fc region) (antibody)
AUC [1]: 4060
AUC [2]: 19300
AUC [3]: 13300
AUC [4]: 3110
AUC [5]: 1520
AUC [6]: 20500
AUC [7]: 2600
AUC [8]: 8120
AUC [9]: 3110
